# Experimental data from the nanobody polyreactivity screen of Harvey et al. (2022).
# Experiment: yeast display, Sf9 membrane polyspecificity reagent, FACS + sequencing; frameworks hold sequencing errors
# Method in brief: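 After 36–48 hours of galactose induction, yeast (Saccharomyces cerevisiae BJ5465) displaying a synthetic nanobody library were stained at 4 °C for 1 hour with 10% biotinylated, detergent-solubilized Sf9 membrane reagent. Streptavidin microbeads enriched the stained cells before FACS sorting into low and high (top ~1%) gates on anti-HA and streptavidin fluorescence. Each clone's polyreactivity label reflects its gate of origin.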
row,Sequence,polyreactivity (PSR sort gate)
1,QVQLVESGGGLVQAGGSLRLSCAASGNIFDSNAMGWYRQAPGKERELVAAITWSGGSTYYADSVKGRFTISRDNAKNTVYLQMNSLKPEDTAVYYCNAVRQQRNVPGGQYEFDYWGQGTQVTVSS,high polyreactivity
2,QVQLVESGGGLVQAGGSLRLSCAASGSIFIYYAIGWYRKAPGKERELVAAIDRSGGNTYYADSVKGRFTISRDNAKNTVYLQMNSLKPEDTAVYYCAALVHRRVQYDYWGQGTQVTVSS,high polyreactivity
3,QVQLVESGGGLVQAGGSLRLSSAASGSTFLLNAMGWYRQAPGKERELVAAITWSGSRTYYADSVKGRFTISRDNPKYNVYLQMNSLKPEDTAVYDCAAEYRDTRRYSYDYWGQGTQVTVSW,high polyreactivity
4,QVQLVESGGALVQAGGSLRLSCAASGGTFYTYAMGWYRQAPGKERELVATITRRGGSTYYADSVKGRFTISRDNAKNTVYLQMKSLKPEDTAVYYCAARSYISTRPIMGYWGQGTQVTVSS,high polyreactivity
5,QVQLVESGGGLVQAGGSLRLICAASGSTFAYNDMGWYRQAPGKERELVADIRSGGNTNYADSVKGRFTISRDNAKNTVYLQMNSLKPEDTAVYYCATDCYRIDVYHPDYRYDYWGQGTQVTVSS,low polyreactivity
6,QVQLVESGGGLVQAVGSIRLSCAASGSIFRKYSIRWNRQAPGKDRELVAAISWSGGGTYYADSVKGRFTISRDNAKNTVYLQMNSLKPEDTAVYYCAADPYWDSKGVYWGQGTQVTVSS,low polyreactivity
7,QVQLVESGGGLVQAGGSLRLSCAASGRISLSNAMGWYRQAPGKEREFVAAITKRSDRTYYADSVKGRFTISRDNAKNTVSLQMNSLKPEDTAVYYCAAKPLFGTRDDYWGQGTQVTVSS,low polyreactivity
8,QVQLVESGGGLVQAGGSLRLSCAASGSILEPYAMGWYRQAPGKERELVAAISSSGGSTRYADSVKGRFTISRDNAKNTVYLQMNSLKPEDTAVYYCAARFRAKFNYWGQGTQVTVSS,low polyreactivity
9,QVQLVESGGGLVQAGGSLRLSCAASGSIFAYAMGWYRQAPGKQRELVAGISSSGGRTYYADSVKGRFTISRDNAKNSVYLQMNSLKPEDTAVYYCAARAQSPPYGYWGQGTQVTVSS,high polyreactivity
10,QVQLVESGGGLVQAGGSLRLSCAASGRTFPYYAMGWYRQAPGKEREFVAGISRTGGSTYYADSVKGRFTISRDNAKNTVYLQMNSLKPEDTAVYYCNAPYIMTQQGGRRYDYWGQGTQVTVSS,high polyreactivity
11,QVQLVESGGGLVQAGGSLRLSCAASGRIFDNYAMGWYRQAPGKERELVAAITYIDSGTYYADSVKGRFTISRDNAKNTVYLQMNSLKPEDTAVYYCAVRLNSDSKRKTQKYGYWGQGTQVTVSS,low polyreactivity
12,QVQLVESGGGLVQPGGSLRLSCAASGSTFSWNAMGWYRQAPGKERELVASITWGGGSTYYADSVKGRFTISRDTAKNTVYLQMNSLKPEDTAVYYSAAKYGTSKYSRYYYWGQGTQVTVSS,high polyreactivity
13,QVQLEESGGGLVQAGGSLRLSCAASGNTFPGYAMGWYRQAPGKERELVARISRSGGSTYYADSVKGRFTISRDNAKKTVYLQMNSLKPEDTAVYYCAAGAYRSGGYSFDYWGQGTQVTVSS,low polyreactivity
14,QVQLVESGGGLVQAGGSLRLSCADSGSIFGYYAMGRYRQAPGKERELVAAISDGGTITYYADSVKGRFTISRDNAKNTVYLQMNSLKPEDTAVYYCAARSPPRYYEHSYYYWGQGTQETVSS,high polyreactivity
15,QVQLVESGGGLVQAGGSLRLSCAASGSIFSVYAMGWYRQAPGKERELVAAISTRGGSTYYADSVKGRFTISRDNAKNTVYLQMNSLKPEDTAVYYCAKRWPQYTDYKPMYYWGLGTQVTVSS,high polyreactivity
16,QVHLVESGGGLVQAGGSLRLSCAASGRIFYANDMGWYRQAPGKERELVAAITNTVSTTYADSVKGRFTISRDNAKNTVYLQMNSLKTEDTAVYYCNADDPYVPKADMGYWGQGTQVTVSS,low polyreactivity
17,QVQLVESGGGLVQAGGSLRLSCAASGTTIKYYAMGWSRQAPGKERELVARITSDGGSTFYADSVKGRFTISRDNAKNTVYLQMNSLKPEDTAVYYCNTAYAFRHWWFYPMDYWGQGTQVTVSS,high polyreactivity
